Article PMC2656773 (Neuron, 2009)

Molecular target: the molecule itself
Test: non-reducing SDS-PAGE

B1: His-tagged Snapin wild-type (natural protein, UniProt Q9Z266 1-136, looked up)
chain: MAAAGSAAVSGAGTPVAGPTGRDLFAEGLLEFLRPAVQQLDSHVHAVRESQVELREQIDNLATELCRINEDQKVALDLDPYVKKLLNARRRVVLVNNILQNAQERLRRLNHSVAKETARRRAMLDSGVYPPGSPSK
Question: How did the “stoichiometry N” value turn out when B1 was run?
Answer: The value was 2.
